From PMC5007355 come the findings set out here.

Data set [1] has as its system Fur (ferric uptake regulator) (Helicobacter pylori (strain G27?)). Nature of the data set: DNase I footprinting (protection). The following applies: Footprinting: 15 fmol probe in 50 ul, 300 ng salmon sperm DNA, room temperature, 150 uM Fe2+ or dipyridyl, competitive buffer 20 mM HEPES pH 7.85, 50 mM KCl, 0.
Data set [2] has the same test system. In words: DNase I footprinting (full protection). The following applies: apo (150 uM 2,2'-dipyridyl); site fOPII; Footprinting: 15 fmol probe in 50 ul, 300 ng salmon sperm DNA, room temperature, 150 uM Fe2+ or dipyridyl; competitive buffer 20 mM HEPES pH 7.85, 50 mM KCl, 0.

Consider ParsR wild-type footprinting probe, for which the binding signal in data set [1] (apo (150 uM 2,2'-dipyridyl), site fOPI) was 75 nM; in data set [1] (holo (150 uM Fe2+), site fOPI) it was 12 nM; in data set [1] (holo (150 uM Fe2+), site fOPIII (low affinity)), 125 nM; in data set [2] it was 30 nM.
